This note sets out measurements from US20240100180A1.

The assay has as its target CLDN18.2 on lipoparticles. The assay can be described thus: ELISA on CLDN18.2-lipoparticles.

What is called EC50 is the midpoint of the concentration-response curve. Low readings indicate an effect from little substance, high ones a need for much substance. The substance IMAB362 (antibody) returned an EC50 of 0.0515 µg/mL.
